# Reference: IntAct's records for PubMed 38225382
# B1: Syntaxin-1B (Homo sapiens), P61266 (parent)
# chain: MKDRTQELRSAKDSDDEEEVVHVDRDHFMDEFFEQVEEIRGCIEKLSEDVEQVKKQHSAILAAPNPDEKTKQELEDLTADIKKTANKVRSKLKAIEQSIEQEEGLNRSSADLRIRKTQHSTLSRKFVEVMTEYNATQSKYRDRCKDRIQRQLEITGRTTTNEELEDMLESGKLAIFTDDIKMDSQMTKQALNEIETRHNEIIKLETSIRELHDMFVDMAMLVESQGEMIDRIEYNVEHSVDYVERAVSDTKKAVKYQSKARRKKIMIIICCVVLGVVLASSIGGTLGL
# partner: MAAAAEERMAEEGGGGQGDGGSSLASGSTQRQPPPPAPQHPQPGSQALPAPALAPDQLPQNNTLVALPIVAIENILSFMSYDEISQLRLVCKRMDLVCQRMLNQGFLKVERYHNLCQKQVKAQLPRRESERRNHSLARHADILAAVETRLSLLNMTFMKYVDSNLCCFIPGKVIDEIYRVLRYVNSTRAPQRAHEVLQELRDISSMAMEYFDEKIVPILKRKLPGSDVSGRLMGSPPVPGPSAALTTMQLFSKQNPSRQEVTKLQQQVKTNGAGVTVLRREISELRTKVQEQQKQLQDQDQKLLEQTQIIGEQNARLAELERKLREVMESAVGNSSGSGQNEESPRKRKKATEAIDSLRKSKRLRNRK
# Variants of: B1
# Details: with fbx28_human FBXO28, Q9NVF7
row,Variant,effect of a mutation on the interaction
1,G226R,decreasing interaction strength
2,S239P,decreasing interaction strength
3,N134E,with no effect
4,V216E,decreasing interaction strength
